Changes are numbered by the printed parent chain.
B1: P283FR9P1366_H11 (designed binder)
chain: LPAPKNLVVSRVTEDSARLSWTAPDAAFDSFQIQYLETAPDGEAIVLTVPGSERSYDLTGLKPGTEYYVWIPGVKGGAFSPLSAIFTT
notes: FN3 domain
B2: P283DR9P1364_E8 (designed binder)
chain: LPAPKNLVVSRVTEDSARLSWTAPDAAFDSFSIAYPEWPVHGEAIVLTVPGSERSYDLTGLKPGTEYFVIIYGVKGGVLSEPLSAIFTT
notes: FN3 domain
B3: P283DR9P1364_A7 (designed binder)
chain: B2 chain with S32R, H41R, E43D, F68W, Y72Q, V78T, L79D, E81F
notes: FN3 domain
B4: P283DR9P1364_E3 (designed binder)
chain: B2 chain with S32G, W38L, V40I, H41G, Y72R, V78T, E81P
notes: FN3 domain
B5: P283DR9P1364_C10 (designed binder)
chain: B2 chain with S32Q, V40K, H41D, F68A, I70F, Y72W, L79Y, E81N
notes: FN3 domain
B6: P283DR9P1364_A4 (designed binder)
chain: B2 chain with S32Y, H41Q, V78D, L79W
notes: FN3 domain
B7: P283DR9P1364_B4 (designed binder)
chain: B2 chain with S32A, A34S, V40P, H41P, F68W, Y72L, V78D, L79Q, E81W
notes: FN3 domain
B8: P283DR9P1364_D9 (designed binder)
chain: B2 chain with S32G, A34S, V40P, H41L, F68W, Y72F, V78E, L79R, E81W
notes: FN3 domain
B9: P283DR9P1364_D8 (designed binder)
chain: B2 chain with S32Q, W38T, V40I, H41Q, Y72H, V78I, L79T, E81F
notes: FN3 domain
B10: P283DR9P1364_D11 (designed binder)
chain: B2 chain with S32D, V40P, H41K, I70V, V78I, L79H, E81A
notes: FN3 domain
B11: P283DR9P1364_B1 (designed binder)
chain: B2 chain with S32Y, A34T, W38I, V40L, H41G, I70V, V78L, E81S
notes: FN3 domain
B12: P283DR9P1364_B11 (designed binder)
chain: B2 chain with S32Y, A34S, P39E, V40Q, H41L, I70V, V78A, E81A
notes: FN3 domain
B13: P283AR9P1362_C6 (designed binder)
chain: LPAPKNLVVSRVTEDSARLSWYPSDPPFDSFLIQYQESEKVGEAIVLTVPGSERSYDLTGLKPGTEYTVSIYGVPNYHSRRSYYYSNPLSAIFTT
notes: FN3 domain
B14: P283BR9P1363_C4 (designed binder)
chain: LPAPKNLVVSRVTEDSARLSWPIVNTPLHFDSFLIQYQESEKVGEAIVLTVPGSERSYDLTGLKPGTEYTVSIYGVDVQYTATGQPERSNPLSAIFTT
notes: FN3 domain
B15: P283AR9P1362_D2 (designed binder)
chain: LPAPKNLVVSRVTEDSARLSWQRPKSGFFDSFLIQYQESEKVGEAIVLTVPGSERSYDLTGLKPGTEYTVSIYGVDVKYDIDSRPISSNPLSAIFTT
notes: FN3 domain
B16: P283AR9P1362_H11 (designed binder)
chain: B15 chain with Q22P, R23K, P24I, K25Q, S26G, G27Q, F28H
notes: FN3 domain
B17: P283AR9P1362_B10 (designed binder)
chain: LPAPKNLVVSRVTEDSARLSWKRRWDSFDSFLIQYQESEKVGEAIVLTVPGSERSYDLTGLKPGTEYTVSIYGVDVEWFNGLPHHSNPLSAIFTT
notes: FN3 domain
B18: P282FR9P1361_E12 (designed binder)
chain: LPAPKNLVVSRVTEDSARLSWTAPDAAFDSLGITYWESPYAGEAIVLTVPGSERSYDLTGLKPGTEYGVFILGVKGGYPSAPLSAIFTT
notes: FN3 domain
B19: P282FR9P1361_G9 (designed binder)
chain: B18 chain with L31F
notes: FN3 domain
B20: P283BR9P1363_D11 (designed binder)
chain: LPAPKNLVVSRVTEDSARLSWNKKHDGQPTFDSFLIQYQESEKVGEAIVLTVPGSERSYDLTGLKPGTEYTVSIYGVDVVYEGSYPASSNPLSAIFTT
notes: FN3 domain
B21: P282FR9P1361_F7 (designed binder)
chain: LPAPKNLVVSRVTEDSARLSWTAPDAAFDSFPIWYREYATGEAIVLTVPGSERSYDLTGLKPGTEYDVVITGVKGGYPSYPLSAIFTT
notes: FN3 domain
B22: P283AR9P1362_B2 (designed binder)
chain: LPAPKNLVVSRVTEDSARLSWAKHPNSFDSFLIQYQESEKVGEAIVLTVPGSERSYDLTGLKPGTEYTVSIYGVDVVVNELNNPLFSNPLSAIFTT
notes: FN3 domain
B23: P283BR9P1363_A8 (designed binder)
chain: LPAPKNLVVSRVTEDSARLSWVRSDTARFFDSFLIQYQESEKVGEAIVLTVPGSERSYDLTGLKPGTEYTVSIYGVDVKYDIDSRPISSNPLSAIFTT
notes: FN3 domain

What follows are binders tested against T1, human CD8 alpha (CD8A) on primary human CD8+ T cells (human, UniProt P01732 22-235) (assay: flow cytometry, human CD8+ T cells).
T1 construct: whole, on cells; also called hCD8A
Description: (§1) Binding of the 190 ELISA hits to human and cynomologous monkey primary CD8 T cells was assessed by flow cytometry. The FN3 domain molecules were diluted to 2 μM and 0.2 μM in PBS and incubated with human or cynomologous monkey CD8+ T cells in 96-well format. After 1 hour at 4 C, the cells were washed once with PBS and then resuspended with an anti-FN3 domain antibody (PAB25) solution. Following this incubation, the cells were washed twice with PBS and a PE conjugated secondary antibody and a viability dye were added. Finally, cells were washed and resuspended in PBS for flow cytometric analysis using a BD Canto Instrument. Cells were gating on live cells and median fluorescence intensity of the bound Centyrins (PE channel) was calculated using Cytobank software.
T1 sequence (P01732 22-235): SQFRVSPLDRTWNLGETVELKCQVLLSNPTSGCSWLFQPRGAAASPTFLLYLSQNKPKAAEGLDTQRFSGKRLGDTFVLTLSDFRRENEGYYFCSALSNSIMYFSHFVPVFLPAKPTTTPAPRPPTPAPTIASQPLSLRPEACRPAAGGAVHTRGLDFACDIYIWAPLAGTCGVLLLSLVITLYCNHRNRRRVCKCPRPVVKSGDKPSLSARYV

Row | Binder | Human T-cell Binding 0.2 uM (MFI) | Human T-cell Binding 2 uM (MFI)
1 | B1 | 2330 MFI | 18900 MFI
2 | B2 | 1180 MFI | 14300 MFI
3 | B3 | 435 MFI | 8980 MFI
4 | B4 | 317 MFI | 1280 MFI
5 | B5 | 649 MFI | 4940 MFI
6 | B6 | 1024 MFI | 9490 MFI
7 | B7 | 6060 MFI | 45500 MFI
8 | B8 | 5240 MFI | 42300 MFI
9 | B9 | 244 MFI | 656 MFI
10 | B10 | 4220 MFI | 32300 MFI
11 | B11 | 666 MFI | 1480 MFI
12 | B12 | 451 MFI | 4260 MFI

These binders were tested against T2, cynomolgus monkey CD8A on primary cynomolgus monkey CD8+ T cells (cynomolgus monkey, UniProt P01732 23-235 (human entry)) (assay: flow cytometry, cyno CD8+ T cells, 2 uM FN3).
T2 construct: also called Cyno CD8alpha
T2 sequence (P01732 other isoform, or with tags, fused parts or gaps limits assumed): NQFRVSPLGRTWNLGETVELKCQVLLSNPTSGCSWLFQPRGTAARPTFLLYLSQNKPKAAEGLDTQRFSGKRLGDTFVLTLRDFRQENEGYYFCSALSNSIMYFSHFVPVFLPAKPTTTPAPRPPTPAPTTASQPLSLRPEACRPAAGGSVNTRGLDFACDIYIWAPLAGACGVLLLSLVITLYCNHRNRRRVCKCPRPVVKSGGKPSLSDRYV

Row | Binder | Cyno T-cell Binding 2 uM (MFI)
13 | B13 | 17500 MFI
14 | B14 | 23400 MFI
15 | B15 | 17200 MFI
16 | B16 | 11600 MFI
17 | B17 | 35700 MFI
18 | B18 | 63500 MFI
19 | B19 | 3750 MFI
20 | B20 | 20600 MFI
21 | B21 | 1700 MFI
22 | B22 | 38800 MFI
23 | B23 | 24200 MFI

Each binder was assayed against T2, cynomolgus monkey CD8A on primary … (assay: flow cytometry, cyno CD8+ T cells, 0.2 uM FN3).

Row | Binder | Cyno T-cell Binding 0.2 uM (MFI)
24 | B13 | 5690 MFI
25 | B14 | 3270 MFI
26 | B15 | 5330 MFI
27 | B16 | 3660 MFI
28 | B17 | 8380 MFI
29 | B18 | 15100 MFI
30 | B19 | 666 MFI
31 | B20 | 11600 MFI
32 | B21 | 353 MFI
33 | B22 | 6480 MFI
34 | B23 | 3450 MFI

The binders below were run against T3, cynomolgus monkey CD8 alpha on primary cynomolgus CD8+ T cells (cynomolgus monkey, UniProt P01732 23-235 (human entry)) (assay: flow cytometry, cyno CD8+ T cells).
T3 construct: also called Cyno CD8alpha; cyno CD8A
Description: as §1

T3 sequence (P01732 other isoform, or with tags, fused parts or gaps limits assumed): as above

Row | Binder | Cyno T-cell Binding 0.2 uM (MFI) | Cyno T-cell Binding 2 uM (MFI)
35 | B1 | 3660 MFI | 37400 MFI
36 | B2 | 5510 MFI | 59300 MFI
37 | B3 | 2640 MFI | 39900 MFI
38 | B4 | 887 MFI | 9130 MFI
39 | B5 | 2710 MFI | 34200 MFI
40 | B6 | 6650 MFI | 48300 MFI
41 | B7 | 20200 MFI | 96500 MFI
42 | B8 | 20000 MFI | 88300 MFI
43 | B9 | 365 MFI | 2480 MFI
44 | B10 | 16200 MFI | 70400 MFI
45 | B11 | 746 MFI | 8620 MFI
46 | B12 | 1590 MFI | 22900 MFI

Each binder was assayed against T4, In house human CD8A-Fc (human, UniProt P01732 22-182, limits assumed) (assay: SPR (ProteOn), captured hCD8A-Fc).
T4 construct: Captured on goat anti-human Fc on a ProteOn GLC chip; also called hCD8A-Fc; recombinant human CD8 alpha; not shown: linker with flag (and polyhistidine) tag and Fc of human IgG1
T4 sequence (P01732 22-182 limits assumed): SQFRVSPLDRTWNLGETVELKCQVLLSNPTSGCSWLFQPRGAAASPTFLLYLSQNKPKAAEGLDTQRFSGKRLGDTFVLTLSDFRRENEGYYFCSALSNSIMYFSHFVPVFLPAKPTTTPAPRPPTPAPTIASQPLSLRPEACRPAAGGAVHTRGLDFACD

Row | Binder | koff
47 | B13 | 0.00109 s⁻¹
48 | B14 | 0.000409 s⁻¹
49 | B15 | 0.000253 s⁻¹
50 | B16 | 0.00018 s⁻¹
51 | B17 | 0.000139 s⁻¹
52 | B18 | 0.00109 s⁻¹
53 | B19 | 0.00653 s⁻¹
54 | B20 | 0.000495 s⁻¹
55 | B21 | 0.00114 s⁻¹
56 | B22 | 0.00016 s⁻¹
57 | B23 | 0.000353 s⁻¹

The binders below were run against T5, human CD8A-Fc (in house) (human, UniProt P01732 22-182, limits assumed) (assay: SPR (ProteOn), captured hCD8A-Fc).
T5 construct: captured by goat anti-human Fc on the ProteOn chip; also called hCD8A-Fc; recombinant human CD8 alpha; not shown: linker/tag and Fc of human IgG1
T5 sequence (P01732 22-182 limits assumed): as above

Row | Binder | koff
58 | B1 | 0.00139 s⁻¹
59 | B2 | 0.000756 s⁻¹
60 | B3 | 0.00197 s⁻¹
61 | B4 | 0.00253 s⁻¹
62 | B5 | 0.00129 s⁻¹
63 | B6 | 0.00109 s⁻¹
64 | B7 | 0.000109 s⁻¹
65 | B8 | 0.00043 s⁻¹
66 | B9 | 0.00661 s⁻¹
67 | B10 | 0.000514 s⁻¹
68 | B11 | 0.00156 s⁻¹
69 | B12 | 0.0013 s⁻¹

What follows are binders tested against T6, human CD8 alpha (CD8A) on primary human CD8+ T cells (human, UniProt P01732 22-235) (assay: flow cytometry, human CD8+ T cells, 0.2 uM FN3).
T6 construct: whole, on cells; also called hCD8A
T6 sequence (P01732 22-235): as the sequence (P01732 22-235) above

Row | Binder | Human T-cell Binding 0.2 uM (MFI)
70 | B13 | 4150 MFI
71 | B14 | 2250 MFI
72 | B15 | 2760 MFI
73 | B16 | 2270 MFI
74 | B17 | 3700 MFI
75 | B18 | 1130 MFI
76 | B19 | 297 MFI
77 | B20 | 2890 MFI
78 | B21 | 1110 MFI
79 | B22 | 3500 MFI
80 | B23 | 2540 MFI

Each binder was assayed against T6, human CD8 alpha (CD8A) on primary human … (assay: flow cytometry, human CD8+ T cells, 2 uM FN3).

Row | Binder | Human T-cell Binding 2 uM (MFI)
81 | B13 | 16000 MFI
82 | B14 | 9070 MFI
83 | B15 | 8650 MFI
84 | B16 | 5730 MFI
85 | B17 | 15400 MFI
86 | B18 | 15800 MFI
87 | B19 | 859 MFI
88 | B20 | 8690 MFI
89 | B21 | 7000 MFI
90 | B22 | 13600 MFI
91 | B23 | 11300 MFI
